The target of assay [1] is T1, human C1s mutant M2 (M277I & K331Q) (human, UniProt P09871 16-688).
T1 construct: The entry is the mutant itself
T1 sequence: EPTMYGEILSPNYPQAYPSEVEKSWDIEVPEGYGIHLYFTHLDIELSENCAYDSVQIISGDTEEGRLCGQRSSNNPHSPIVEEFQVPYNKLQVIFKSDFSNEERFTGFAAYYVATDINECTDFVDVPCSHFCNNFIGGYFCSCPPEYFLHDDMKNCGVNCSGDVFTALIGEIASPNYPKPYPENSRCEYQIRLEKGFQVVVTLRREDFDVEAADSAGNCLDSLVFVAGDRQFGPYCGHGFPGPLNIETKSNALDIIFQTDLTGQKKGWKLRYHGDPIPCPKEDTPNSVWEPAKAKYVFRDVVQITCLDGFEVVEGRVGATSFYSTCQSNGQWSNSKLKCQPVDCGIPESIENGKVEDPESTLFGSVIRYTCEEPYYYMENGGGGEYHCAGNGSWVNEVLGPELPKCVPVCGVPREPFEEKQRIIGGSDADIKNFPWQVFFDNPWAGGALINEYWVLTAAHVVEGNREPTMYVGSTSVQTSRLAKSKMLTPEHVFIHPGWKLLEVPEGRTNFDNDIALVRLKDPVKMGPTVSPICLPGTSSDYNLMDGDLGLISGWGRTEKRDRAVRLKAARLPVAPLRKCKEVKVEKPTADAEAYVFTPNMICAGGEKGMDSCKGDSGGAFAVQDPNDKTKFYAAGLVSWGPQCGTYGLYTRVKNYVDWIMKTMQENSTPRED
Put plainly: ELISA, plate coated with human C1s mutant M2: M277I, K331Q, OD450nm. The protocol: ELISA was carried out by first coating 96-well plates with 200 ng/well of full-length or truncated C1s proteins overnight. The next morning, plates were blocked with SuperBlock T20 blocking buffer (Thermo Scientific 37536) for 1 h with gentle shaking. Then, various concentrations of anti-C1s antibodies diluted in SuperBlock T20 blocking buffer were added to the plates and incubated for 1 h with gentle shaking. Mouse IgG (Sigma-Aldrich 15381) and human IgG1 (BioXCell BP0297) were used as negative controls. The plates were washed before incubating with HRP conjugated secondary antibodies diluted in SuperBlock T20 blocking buffer (goat anti-mouse IgG (H+L) cross-adsorbed secondary antibody HRP (Invitrogen G-21040) or goat anti-human IgG antibody, HRP conjugate (Millipore AP309P)) for 1 h with gentle shaking. At last, the plates were washed and color developed with ELISA liquid HRP substrate (Sigma-Aldrich), followed by stopping the reaction with addition of 1M H₂SO₄ in the same volume as the ELISA liquid substrate. Bound antibody was measured by absorbance at OD₄₅₀ₙₘ.
Binding of anti-C1s antibodies to mutants M1-M20 of human C1s was measured by ELISA as described in Example 4, and results are shown in FIGS. 6B-6U. All anti-C1s humanized variants including hz2-7(H1L2), hz2-8(H1L2 G80A) and hz2-8(H1L2 G80A/T82A) maintained strong binding properties to the majority (16 out of 20) of C1s mutants including M1 (FIG. 6B), M2 (FIG. 6C), M3 (FIG. 6D). M4 (FIG. 6E), M7 (FIG. 6H), M8 (FIG. 6I), M10 (FIG. 6K), M11 (FIG. 6L), M12 (FIG. 6M), M13 (FIG. 6N), M15 (FIG. 6P), M16 (FIG. 6Q), M17 (FIG. 6R), M18 (FIG. 6S), M19 (FIG. 6T) and M20 (FIG. 6U).
(In an ELISA, binding on a coated surface is turned into a signal by an enzyme label.)

Assay [2] has as its target T2, rat C1s (produced in house) (rat, UniProt Q6P6T1 16-688).
T2 construct: also called RaC1s
T2 sequence: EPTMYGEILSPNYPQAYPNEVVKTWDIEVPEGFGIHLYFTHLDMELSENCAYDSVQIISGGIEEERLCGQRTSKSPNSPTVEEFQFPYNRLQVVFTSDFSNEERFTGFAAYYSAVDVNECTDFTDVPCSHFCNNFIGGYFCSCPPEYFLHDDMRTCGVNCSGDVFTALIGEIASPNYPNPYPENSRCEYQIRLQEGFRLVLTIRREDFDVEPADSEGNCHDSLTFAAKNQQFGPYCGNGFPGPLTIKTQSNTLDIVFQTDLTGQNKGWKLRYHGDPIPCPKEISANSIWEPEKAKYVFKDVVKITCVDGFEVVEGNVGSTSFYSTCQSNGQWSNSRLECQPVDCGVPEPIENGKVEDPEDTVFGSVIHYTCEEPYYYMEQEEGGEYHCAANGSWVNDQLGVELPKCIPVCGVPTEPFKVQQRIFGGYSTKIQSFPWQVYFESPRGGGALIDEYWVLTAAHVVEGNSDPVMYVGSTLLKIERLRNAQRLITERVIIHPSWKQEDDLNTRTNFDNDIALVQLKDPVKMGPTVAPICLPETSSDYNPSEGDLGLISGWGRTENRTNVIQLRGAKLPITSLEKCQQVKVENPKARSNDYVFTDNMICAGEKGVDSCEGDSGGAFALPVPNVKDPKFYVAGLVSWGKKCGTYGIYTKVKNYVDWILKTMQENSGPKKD
The experiment in a line: ELISA, plate coated with 200 ng/well RatC1s, OD450nm. The protocol:
The next morning, plates were blocked with SuperBlock T20 blocking buffer (Thermo Scientific 37536) for 1 h with gentle shaking. Then, various concentrations of anti-C1s antibodies diluted in SuperBlock T20 blocking buffer were added to the plates and incubated for 1 h with gentle shaking. Mouse IgG (Sigma-Aldrich I5381) and Human IgG1 (BioXCell BP0297) were used as negative controls. The plates were washed before incubating with HRP conjugated secondary antibodies diluted in SuperBlock T20 blocking buffer (goat anti-mouse IgG (H+L) cross-adsorbed secondary antibody HRP (Invitrogen G-21040) or goat anti-human IgG antibody, HRP conjugate (Millipore AP309P)) for 1 h with gentle shaking. At last, the plates were washed and color developed with ELISA liquid substrate (Sigma-Aldrich), followed by stopping the reaction with addition of the same volume of […] 1M H₂SO₄. Bound antibody was measured by absorbance at OD₄₅₀ₙₘ.

This is an account of results in US20230051715A1 (MABWELL THERAPEUTICS, published 2023).

B1: Anti-C1s antibody hz2-8 (H1L2 G80A) (antibody, V domains shown)
VH: QVQLVQSGAEVKKPGASVKVSCKASGFNIKEYYMHWVRQAPEQGLEWMGWIDPENADTIYAQKFQGRVTITADTSTNTAYMELSSLRSEDTAVYYCARSRLFFAYWGQGTLVTVSS
VL: DIQMTQSPKSLSASVGDRVTITCRASQDVRTALDWYQQKPGQSPKLLIYSASYRYSGVPSRFSGSGSGTDFTLTISSLQPEDFATYYCQQQYTTPYTFGQGTKLEIKR
notes: Humanized variant with G80A in HC CDR2 (already in the entry), human IgG1 / kappa
On to B1, for which the EC50 (usually the concentration that produces a half-maximal response) in assay [1] turned out to be 7 ng/mL.

B2: Anti-C1s antibody hz2-8 (H1L2 G80A/T82A) (antibody, V domains shown)
VH: QVQLVQSGAEVKKPGASVKVSCKASGFNIKEYYMHWVRQAPEQGLEWMGWIDPENADAIYAQKFQGRVTITADTSTNTAYMELSSLRSEDTAVYYCARSRLFFAYWGQGTLVTVSS
VL: DIQMTQSPKSLSASVGDRVTITCRASQDVRTALDWYQQKPGQSPKLLIYSASYRYSGVPSRFSGSGSGTDFTLTISSLQPEDFATYYCQQQYTTPYTFGQGTKLEIKR
notes: Humanized variant with G80A and T82A in HC CDR2 (already in the entry), human IgG1 / kappa
B2: the values for the EC50 in assay [2] and in assay [1] were 105 ng/mL and 6 ng/mL, respectively.

B3: Anti-C1s antibody 2-8 (antibody, V domains shown)
VH: EVQLQQSGAELVRPGALVKLSCKASGFNIKEYYMHWVKQRPEQGLEWIGWIDPENGDTIYDPKFQGKASITADTSSNTAYLQLSSLTSEDTAVYYCARSRLFFAYWGQGTLVTVSA
VL: DIVMTQSHKFMSTSVGDRVSFTCKASQDVRTAVDWYQQKPGQSPKLLIYSASYRYTGVPDRFTGTGSGTDFTFTISSVQAEDLAVYFCQQQYTTPYTFGGGTKLEIKT
notes: the HC/LC entries may hold it too; also called clone 2-8
Consider B3, for which, in assay [2], the EC50 was determined as 63 ng/mL.

B4: Anti-C1s antibody hz2-7(H1L2) (antibody, V domains shown)
VH: EVQLLESGGGLVQPGGSLRLSCAASGFTFSNYFMNWVRQAPGKGLEWVSEIRLKFTNYATHYADSVKGRFTISRDDSKSTLYLQMNSLRAEDTAVYYCTRDYGSRNGYFDYWGQGTLVTVSS
VL: DIVMTQTPLSLPVTPGEPASISCRSSKSLLHSNGNTFLYWFLQKPGQSPQLLIYRMSNLASGVPDRFSGSGSGTDFTLKISRVEAEDVGVYYCMQHLEYPYTFGGGTKLEIKR
notes: Humanized, human IgG1 / kappa; also called hz2-7(1L2)
Take B4: in assay [2], the binding result was “no binding (tested: 1000 ng/ml (Log 3))”. In addition, the midpoint of the response in assay [1], the EC50, lay at 9 ng/mL.

B5: Anti-C1s antibody 2-7 (antibody, human IgG1, kappa, V domains shown)
VH: EVKLEESGGGLVPPGGSMKLSCVASGFTFSNYFMNWVRQSPEKGLEWVAEIRLKFTNYATHYAESVEGRFTISRDDSKSSVYLQMNNLRAEDTGIYYCTRDYGSRNGYFDYWGQGTTLTVSS
VL: DIVMTQAAPSVPVTPGESVSISCRSSKSLLHSNGNTFLYWFLQRPGQSPQLLIYRMSNLASGVPDRFSGSGSGTAFTLRVSRVEAEDVGIYYCMQHLEYPYTFGGGTKLEIKT
notes: the HC/LC entries may hold it too; also called clone 2-7
As for B5, the binding result in assay [2] was “no binding (tested: 1000 ng/ml (Log 3))”.
